Test results taken from PMC11379886, “Insights into phosphoethanolamine cellulose synthesis and secretion across the Gram-negative cell envelope” (Nature Communications, 2024).

B1: Escherichia coli BcsB (natural protein)
chain: TPATQPLINAEPAVAAQTEQNPQVGQVMPGVQGADAPVVAQNGPSRDVKLTFAQIAPPPGSMVLRGINPNGSIEFGMRSDEVVTKAMLNLEYTPSPSLLPVQSQLKVYLNDELMGVLPVTKEQLGKKTLAQMPINPLFISDFNRVRLEFVGHYQDVCEKPASTTLWLDVGRSSGLDLTYQTLNVKNDLSHFPVPFFDPSDNRTNTLPMVFAGAPDVGLQQASAIVASWFGSRSGWRGQNFPVLYNQLPDRNAIVFATNDKRPDFLRDHPAVKAPVIEMINHPQNPYVKLLVVFGRDDKDLLQAAKGIAQGNILFRGESVVVNEVKPLLPRKPYDAPNWVRTDRPVTFGELKTYEEQLQSSGLEPAAINVSLNLPPDLYLMRSTGIDMDINYRYTMPPVKDSSRMDISLNNQFLQSFNLSSKQEANRLLLRIPVLQGLLDGKTDVSIPALKLGATNQLRFDFEYMNPMPGGSVDNCITFQPVQNHVVIGDDSTIDFSKYYHFIPMPDLRAFANAGFPFSRMADLSQTITVMPKAPNEAQMETLLNTVGFIGAQTGFPAINLTVTDDGSTIQGKDADIMIIGGIPDKLKDDKQIDLLVQATESWVKTPMRQTPFPGIVPDESDRAAETRSTLTSSGAMAAVIGFQSPYNDQRSVIALLADSPRGYEMLNDAVNDSGKRATMFGSVAVIRESGINSLRVGDVYYVGHLPWFERVWYALANHPILLAVLAAISVILLAWVLWRLLRIISRRRLNPDNE
notes: BcsB, periplasmic inner-membrane-anchored subunit of the E. coli cellulose synthase complex; In the BcsB-BcsC fusion made from the same plasmid the BcsB part is residues 55-779; also called Ec BcsB; not shown: Strep-tag II, N-terminal, kept

Assays:
[1] = biological target: the molecule itself; assay: cryo-EM structure; purified Ec Bcs inner membrane complex in MSP2N2 nanodiscs incubated with the separately purified periplasmic domain of BcsC (TPR#1-18) at a molar ratio of 1:5 for 1 h on ice; low-resolution map
[2] = biological target: the molecule itself; assay: cryo-EM structure; BcsC TPR#1-4 fused to the N-terminus of BcsB, co-expressed with all other Bcs components, purified in detergent, about 2.2 mg/mL; focused refinement of a tetrameric BcsB assembly, about 3.2 Å
[3] = biological target: B1; assay: cryo-EM structure; purified Ec Bcs inner membrane complex in MSP2N2 nanodiscs incubated with the separately purified periplasmic domain of BcsC (TPR#1-18) at a molar ratio of 1:5 for 1 h on ice; low-resolution map; conditions: both partners purified
[4] = biological target: the molecule itself; assay: cryo-EM structure; reprocessing of the previously published cryo-EM data (EMD-23267) of the co-expressed, co-purified Ec inner membrane-associated Bcs complex, focused on BcsA-BcsG; ~5.7 Å; AlphaFold2 model docked as rigid bodies
[5] = biological target: the molecule itself; assay: cryo-EM structure; BcsC incubated with purified BcsZ at a molar 1:1.5; single particle analysis, about 2.7 Å for BcsZ
[6] = biological target: T1, Escherichia coli BcsB (residues 55–779), as it stands in the BcsB-BcsC fusion (Escherichia coli, UniProt P37652 55-779); assay: cryo-EM structure; BcsC TPR#1-4 fused to the N-terminus of BcsB, co-expressed with all other Bcs components, purified in detergent, about 2.2 mg/mL; focused refinement of a tetrameric BcsB assembly, about 3.2 Å; conditions: both partners purified
T1 construct: E. coli BcsB, residues 55-779; Joined on one chain with Strep-tag II, BcsC 21-179 and a GSGSGS linker at its N-terminus (molecule m11); written apart for the BcsB-BcsC pair of the structure; source: E. coli C43, as part of the BcsB-BcsC fusion chain, co-purified with the Bcs complex
T1 sequence (looked up): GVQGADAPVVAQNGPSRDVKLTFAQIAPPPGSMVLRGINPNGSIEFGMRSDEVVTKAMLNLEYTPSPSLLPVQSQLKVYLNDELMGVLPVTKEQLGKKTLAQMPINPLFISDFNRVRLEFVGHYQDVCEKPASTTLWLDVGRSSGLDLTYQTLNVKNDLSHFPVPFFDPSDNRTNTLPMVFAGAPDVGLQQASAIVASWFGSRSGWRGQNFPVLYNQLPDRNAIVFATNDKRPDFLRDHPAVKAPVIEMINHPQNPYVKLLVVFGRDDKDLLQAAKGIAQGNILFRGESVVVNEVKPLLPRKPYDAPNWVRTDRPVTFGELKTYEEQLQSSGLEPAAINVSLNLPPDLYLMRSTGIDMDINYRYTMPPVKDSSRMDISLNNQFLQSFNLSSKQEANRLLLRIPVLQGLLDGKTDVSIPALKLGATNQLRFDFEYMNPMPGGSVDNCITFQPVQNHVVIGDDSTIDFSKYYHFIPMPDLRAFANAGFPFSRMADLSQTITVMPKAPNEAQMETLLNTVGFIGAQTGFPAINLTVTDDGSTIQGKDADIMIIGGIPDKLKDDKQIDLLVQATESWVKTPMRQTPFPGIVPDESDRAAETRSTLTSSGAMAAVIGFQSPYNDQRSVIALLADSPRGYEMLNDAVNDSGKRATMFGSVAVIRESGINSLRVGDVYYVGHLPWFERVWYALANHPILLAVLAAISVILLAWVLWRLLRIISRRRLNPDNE

## B1
[1]
  stoichiometry N: 6

B2: BcsB-BcsC fusion: BcsC TPR#1–4 fused to the N-terminus of Escherichia coli BcsB (other)
chain: VEAAPTAQQQLLEQVRLGEATHREDLVQQSLYRLELIDPNNPDVVAARFRSLLRQGDIDGAQKQLDRLSQLAPSSNAYKSSRTTMLLSTPDGRQALQQARLQATTGHAEEAVASYNKLFNGAPPEGDIAVEYWSTVAKIPARRGEAINQLKRINADAPGGSGSGSGVQGADAPVVAQNGPSRDVKLTFAQIAPPPGSMVLRGINPNGSIEFGMRSDEVVTKAMLNLEYTPSPSLLPVQSQLKVYLNDELMGVLPVTKEQLGKKTLAQMPINPLFISDFNRVRLEFVGHYQDVCEKPASTTLWLDVGRSSGLDLTYQTLNVKNDLSHFPVPFFDPSDNRTNTLPMVFAGAPDVGLQQASAIVASWFGSRSGWRGQNFPVLYNQLPDRNAIVFATNDKRPDFLRDHPAVKAPVIEMINHPQNPYVKLLVVFGRDDKDLLQAAKGIAQGNILFRGESVVVNEVKPLLPRKPYDAPNWVRTDRPVTFGELKTYEEQLQSSGLEPAAINVSLNLPPDLYLMRSTGIDMDINYRYTMPPVKDSSRMDISLNNQFLQSFNLSSKQEANRLLLRIPVLQGLLDGKTDVSIPALKLGATNQLRFDFEYMNPMPGGSVDNCITFQPVQNHVVIGDDSTIDFSKYYHFIPMPDLRAFANAGFPFSRMADLSQTITVMPKAPNEAQMETLLNTVGFIGAQTGFPAINLTVTDDGSTIQGKDADIMIIGGIPDKLKDDKQIDLLVQATESWVKTPMRQTPFPGIVPDESDRAAETRSTLTSSGAMAAVIGFQSPYNDQRSVIALLADSPRGYEMLNDAVNDSGKRATMFGSVAVIRESGINSLRVGDVYYVGHLPWFERVWYALANHPILLAVLAAISVILLAWVLWRLLRIISRRRLNPDNE
notes: N-terminal four TPRs of E. coli BcsC (TPR#1-4), residues 21-179; linker; E. coli BcsB, residues 55-779; The best map came from a tetrameric BcsB assembly; a fully assembled complex was also seen; also called nSS-Strep-TPR(#1-4)-(GS)3-B; engineered BcsB-BcsC fusion; source: E. coli C43, co-expressed with all other Bcs components, co-purified (Ni-NTA, Strep-Tactin, SEC), in detergent; not shown: …
[2]
  stoichiometry N: 4

B3: periplasmic domain of Escherichia coli BcsC (TPR#1–18; residues 24–709) (domain or fragment, UniProt P37650 24-709, looked up)
chain: APTAQQQLLEQVRLGEATHREDLVQQSLYRLELIDPNNPDVVAARFRSLLRQGDIDGAQKQLDRLSQLAPSSNAYKSSRTTMLLSTPDGRQALQQARLQATTGHAEEAVASYNKLFNGAPPEGDIAVEYWSTVAKIPARRGEAINQLKRINADAPGNTGLQNNLALLLFSSDRRDEGFAVLEQMAKSNAGREGASKIWYGQIKDMPVSDASVSALKKYLSIFSDGDSVAAAQSQLAEQQKQLADPAFRARAQGLAAVDSGMAGKAIPELQQAVRANPKDSEALGALGQAYSQKGDRANAVANLEKALALDPHSSNNDKWNSLLKVNRYWLAIQQGDAALKANNPDRAERLFQQARNVDNTDSYAVLGLGDVAMARKDYPAAERYYQQTLRMDSGNTNAVRGLANIYRQQSPEKAEAFIASLSASQRRSIDDIERSLQNDRLAQQAEALENQGKWAQAAALQRQRLALDPGSVWITYRLSQDLWQAGQRSQADTLMRNLAQQKSNDPEQVYAYGLYLSGHDQDRAALAHINSLPRAQWNSNIQELVNRLQSDQVLETANRLRESGKEAEAEAMLRQQPPSTRIDLTLADWAQQRRDYTAARAAYQNVLTREPANADAILGLTEVDIAAGDKAAARSQLAKLPATDNASLNTQRRVALAQAQLGDTAAAQRTFNKLIPQAKSQPPSME
notes: BcsC periplasmic domain, TPR#1-18, residues 24-709, cloned into pET20b; also called BcsC's periplasmic domain; N-terminal 18 TPRs of BcsC; source: E. coli Rosetta 2, periplasmic extract, purified (Ni-NTA, SEC)
[3]
  binding result: binds

B4: Escherichia coli pEtN transferase BcsG, FLAG-tagged (enzyme, UniProt P37659 1-559, looked up)
chain: MTQFTQNTAMPSSLWQYWRGLSGWNFYFLVKFGLLWAGYLNFHPLLNLVFAAFLLMPLPRYSLHRLRHWIALPIGFALFWHDTWLPGPESIMSQGSQVAGFSTDYLIDLVTRFINWQMIGAIFVLLVAWLFLSQWIRITVFVVAILLWLNVLTLAGPSFSLWPAGQPTTTVTTTGGNAAATVAATGGAPVVGDMPAQTAPPTTANLNAWLNNFYNAEAKRKSTFPSSLPADAQPFELLVINICSLSWSDIEAAGLMSHPLWSHFDIEFKNFNSATSYSGPAAIRLLRASCGQTSHTNLYQPANNDCYLFDNLSKLGFTQHLMMGHNGQFGGFLKEVRENGGMQSELMDQTNLPVILLGFDGSPVYDDTAVLNRWLDVTEKDKNSRSATFYNTLPLHDGNHYPGVSKTADYKARAQKFFDELDAFFTELEKSGRKVMVVVVPEHGGALKGDRMQVSGLRDIPSPSITDVPVGVKFFGMKAPHQGAPIVIEQPSSFLAISDLVVRVLDGKIFTEDNVDWKKLTSGLPQTAPVSENSNAVVIQYQDKPYVRLNGGDWVPYPQ
notes: present as the full-length enzyme in the analysed sample; End of the FLAG tag read from the plasmid's name (G-FLAG); also called Ec BcsG; source: E. coli C43 (DE3), co-expressed with the other Bcs components or with the BcsA chimera, Rs BcsB and BcsF; co-purified; not shown: FLAG, C-terminal, kept
[4]
  stoichiometry N: 3

B5: Escherichia coli cellulase BcsZ (enzyme)
chain: ACTWPAWEQFKKDYISQEGRVIDPSDARKITTSEGQSYGMFSALAANDRAAFDNILDWTQNNLAQGSLKERLPAWLWGKKENSKWEVLDSNSASDGDVWMAWSLLEAGRLWKEQRYTDIGSALLKRIAREEVVTVPGLGSMLLPGKVGFAEDNSWRFNPSYLPPTLAQYFTRFGAPWTTLRETNQRLLLETAPKGFSPDWVRYEKDKGWQLKAEKTLISSYDAIRVYMWVGMMPDSDPQKARMLNRFKPMATFTEKNGYPPEKVDVATGKAQGKGPVGFSAAMLPFLQNRDAQAVQRQRVADNFPGSDAYYNYVLTLFGQGWDQHRFRFSTKGELLPDWGQECANSH
notes: End of the His tag read from the plasmid's name; also called Ec BcsZ
[5]
  stoichiometry N: 4

B6: Escherichia coli BcsC TPR#1–4 (residues 21–179), as it stands in the BcsB-BcsC fusion (domain or fragment, UniProt P37650 21-179, looked up)
chain: VEAAPTAQQQLLEQVRLGEATHREDLVQQSLYRLELIDPNNPDVVAARFRSLLRQGDIDGAQKQLDRLSQLAPSSNAYKSSRTTMLLSTPDGRQALQQARLQATTGHAEEAVASYNKLFNGAPPEGDIAVEYWSTVAKIPARRGEAINQLKRINADAPG
notes: N-terminal four TPRs of E. coli BcsC (TPR#1-4), residues 21-179; Joined on one chain with BcsB 55-779 through a GSGSGS linker (molecule m11); written apart for the BcsB-BcsC pair of the structure; also called BcsC's TPRs#1–4; BcsC N-terminal TPRs; source: E. coli C43, as part of the BcsB-BcsC fusion chain, co-purified with the Bcs complex; not shown: Strep-tag II, N-terminal, kept
[6]
  binding result: binds
